*1 amine or outer side, *2 acyl side, *3 side chain or, on linkers, in order; H or OH if unused. Where no end group is shown, it is not given here. Side-chain parts run from the residue outwards. [ ]: non-standard residue; d: D form. The star is where a group is joined. C18 diacid = O=C(O)CCCCCCCCCCCCCCCCC(=O)*; C16 diacid = O=C(O)CCCCCCCCCCCCCCC(=O)*; γGlu = O=C(O)[C@H](CCC(=O)[*:2])N[*:1]; NMeI = CC[C@H](C)[C@H](NC)C(=O)O; αMeL = CC(C)C[C@](C)(N)C(=O)O; Api = NC1(C(=O)O)CCNCC1; AEEA = NCCOCCOCC(=O)O; Aib = CC(C)(N)C(=O)O
T1: CRF1R receptor (UniProt P34998 24-415, limits assumed)
T1 sequence (looked up): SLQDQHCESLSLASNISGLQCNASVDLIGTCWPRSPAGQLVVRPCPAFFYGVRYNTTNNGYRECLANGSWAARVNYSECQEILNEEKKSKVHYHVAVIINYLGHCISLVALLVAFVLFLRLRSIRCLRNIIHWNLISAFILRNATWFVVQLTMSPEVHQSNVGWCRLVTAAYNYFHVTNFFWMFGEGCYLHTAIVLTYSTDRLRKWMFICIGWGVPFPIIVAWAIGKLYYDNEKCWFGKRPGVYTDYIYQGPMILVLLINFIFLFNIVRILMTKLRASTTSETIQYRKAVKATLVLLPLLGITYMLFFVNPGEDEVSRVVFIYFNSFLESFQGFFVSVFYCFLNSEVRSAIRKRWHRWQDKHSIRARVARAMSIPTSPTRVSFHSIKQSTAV

B1: SEQ ID NO 112 (peptide)
peptide: Ac-IVLSLD[dV]PIK[αMeL]K([AEEA-AEEA-γGlu-C18 diacid])KILLEQEKQKKQREQAETNAQILAQV-NH2
SMILES: CC[C@H](C)[C@H](NC(C)=O)C(=O)N[C@H](C(=O)N[C@@H](CC(C)C)C(=O)N[C@@H](CO)C(=O)N[C@@H](CC(C)C)C(=O)N[C@@H](CC(=O)O)C(=O)N[C@@H](C(=O)N1CCC[C@H]1C(=O)N[C@H](C(=O)N[C@@H](CCCCN)C(=O)N[C@@](C)(CC(C)C)C(=O)N[C@@H](CCCCNC(=O)COCCOCCNC(=O)COCCOCCNC(=O)CC[C@H](NC(=O)CCCCCCCCCCCCCCCCC(=O)O)C(=O)O)C(=O)N[C@@H](CCCCN)C(=O)N[C@H](C(=O)N[C@@H](CC(C)C)C(=O)N[C@@H](CC(C)C)C(=O)N[C@@H](CCC(=O)O)C(=O)N[C@@H](CCC(N)=O)C(=O)N[C@@H](CCC(=O)O)C(=O)N[C@@H](CCCCN)C(=O)N[C@@H](CCC(N)=O)C(=O)N[C@@H](CCCCN)C(=O)N[C@@H](CCCCN)C(=O)N[C@@H](CCC(N)=O)C(=O)N[C@@H](CCCNC(=N)N)C(=O)N[C@@H](CCC(=O)O)C(=O)N[C@@H](CCC(N)=O)C(=O)N[C@@H](C)C(=O)N[C@@H](CCC(=O)O)C(=O)N[C@H](C(=O)N[C@@H](CC(N)=O)C(=O)N[C@@H](C)C(=O)N[C@@H](CCC(N)=O)C(=O)N[C@H](C(=O)N[C@@H](CC(C)C)C(=O)N[C@@H](C)C(=O)N[C@@H](CCC(N)=O)C(=O)N[C@H](C(N)=O)C(C)C)[C@@H](C)CC)[C@@H](C)O)[C@@H](C)CC)[C@@H](C)CC)C(C)C)C(C)C
B2: SEQ ID NO 101 (peptide)
peptide: Ac-VLSLD[dV]PIKLK([AEEA-AEEA-γGlu-C18 diacid])KILLEQEKQKKQREQAETNAQILAQV-NH2
SMILES: CC[C@H](C)[C@H](NC(=O)[C@H](CCC(N)=O)NC(=O)[C@H](C)NC(=O)[C@H](CC(N)=O)NC(=O)[C@@H](NC(=O)[C@H](CCC(=O)O)NC(=O)[C@H](C)NC(=O)[C@H](CCC(N)=O)NC(=O)[C@H](CCC(=O)O)NC(=O)[C@H](CCCNC(=N)N)NC(=O)[C@H](CCC(N)=O)NC(=O)[C@H](CCCCN)NC(=O)[C@H](CCCCN)NC(=O)[C@H](CCC(N)=O)NC(=O)[C@H](CCCCN)NC(=O)[C@H](CCC(=O)O)NC(=O)[C@H](CCC(N)=O)NC(=O)[C@H](CCC(=O)O)NC(=O)[C@H](CC(C)C)NC(=O)[C@H](CC(C)C)NC(=O)[C@@H](NC(=O)[C@H](CCCCN)NC(=O)[C@H](CCCCNC(=O)COCCOCCNC(=O)COCCOCCNC(=O)CC[C@H](NC(=O)CCCCCCCCCCCCCCCCC(=O)O)C(=O)O)NC(=O)[C@H](CC(C)C)NC(=O)[C@H](CCCCN)NC(=O)[C@@H](NC(=O)[C@@H]1CCCN1C(=O)[C@H](NC(=O)[C@H](CC(=O)O)NC(=O)[C@H](CC(C)C)NC(=O)[C@H](CO)NC(=O)[C@H](CC(C)C)NC(=O)[C@@H](NC(C)=O)C(C)C)C(C)C)[C@@H](C)CC)[C@@H](C)CC)[C@@H](C)O)C(=O)N[C@@H](CC(C)C)C(=O)N[C@@H](C)C(=O)N[C@@H](CCC(N)=O)C(=O)N[C@H](C(N)=O)C(C)C
B3: SEQ ID NO 98 (peptide)
peptide: Ac-IVLSLD[dV]PIKLK([AEEA-AEEA-γGlu-C18 diacid])KILLEQEKQKKQREQAETN[Aib]QILAQV-NH2
SMILES: CC[C@H](C)[C@H](NC(C)=O)C(=O)N[C@H](C(=O)N[C@@H](CC(C)C)C(=O)N[C@@H](CO)C(=O)N[C@@H](CC(C)C)C(=O)N[C@@H](CC(=O)O)C(=O)N[C@@H](C(=O)N1CCC[C@H]1C(=O)N[C@H](C(=O)N[C@@H](CCCCN)C(=O)N[C@@H](CC(C)C)C(=O)N[C@@H](CCCCNC(=O)COCCOCCNC(=O)COCCOCCNC(=O)CC[C@H](NC(=O)CCCCCCCCCCCCCCCCC(=O)O)C(=O)O)C(=O)N[C@@H](CCCCN)C(=O)N[C@H](C(=O)N[C@@H](CC(C)C)C(=O)N[C@@H](CC(C)C)C(=O)N[C@@H](CCC(=O)O)C(=O)N[C@@H](CCC(N)=O)C(=O)N[C@@H](CCC(=O)O)C(=O)N[C@@H](CCCCN)C(=O)N[C@@H](CCC(N)=O)C(=O)N[C@@H](CCCCN)C(=O)N[C@@H](CCCCN)C(=O)N[C@@H](CCC(N)=O)C(=O)N[C@@H](CCCNC(=N)N)C(=O)N[C@@H](CCC(=O)O)C(=O)N[C@@H](CCC(N)=O)C(=O)N[C@@H](C)C(=O)N[C@@H](CCC(=O)O)C(=O)N[C@H](C(=O)N[C@@H](CC(N)=O)C(=O)NC(C)(C)C(=O)N[C@@H](CCC(N)=O)C(=O)N[C@H](C(=O)N[C@@H](CC(C)C)C(=O)N[C@@H](C)C(=O)N[C@@H](CCC(N)=O)C(=O)N[C@H](C(N)=O)C(C)C)[C@@H](C)CC)[C@@H](C)O)[C@@H](C)CC)[C@@H](C)CC)C(C)C)C(C)C
B4: SEQ ID NO 109 (peptide)
peptide: Ac-IVLSLD[dV]PIKLK([AEEA-AEEA-γGlu-C18 diacid])KILLEQEKQKKQREQAETN[Api]QILAQV-NH2
SMILES: CC[C@H](C)[C@H](NC(C)=O)C(=O)N[C@H](C(=O)N[C@@H](CC(C)C)C(=O)N[C@@H](CO)C(=O)N[C@@H](CC(C)C)C(=O)N[C@@H](CC(=O)O)C(=O)N[C@@H](C(=O)N1CCC[C@H]1C(=O)N[C@H](C(=O)N[C@@H](CCCCN)C(=O)N[C@@H](CC(C)C)C(=O)N[C@@H](CCCCNC(=O)COCCOCCNC(=O)COCCOCCNC(=O)CC[C@H](NC(=O)CCCCCCCCCCCCCCCCC(=O)O)C(=O)O)C(=O)N[C@@H](CCCCN)C(=O)N[C@H](C(=O)N[C@@H](CC(C)C)C(=O)N[C@@H](CC(C)C)C(=O)N[C@@H](CCC(=O)O)C(=O)N[C@@H](CCC(N)=O)C(=O)N[C@@H](CCC(=O)O)C(=O)N[C@@H](CCCCN)C(=O)N[C@@H](CCC(N)=O)C(=O)N[C@@H](CCCCN)C(=O)N[C@@H](CCCCN)C(=O)N[C@@H](CCC(N)=O)C(=O)N[C@@H](CCCNC(=N)N)C(=O)N[C@@H](CCC(=O)O)C(=O)N[C@@H](CCC(N)=O)C(=O)N[C@@H](C)C(=O)N[C@@H](CCC(=O)O)C(=O)N[C@H](C(=O)N[C@@H](CC(N)=O)C(=O)NC1(C(=O)N[C@@H](CCC(N)=O)C(=O)N[C@H](C(=O)N[C@@H](CC(C)C)C(=O)N[C@@H](C)C(=O)N[C@@H](CCC(N)=O)C(=O)N[C@H](C(N)=O)C(C)C)[C@@H](C)CC)CCNCC1)[C@@H](C)O)[C@@H](C)CC)[C@@H](C)CC)C(C)C)C(C)C
B5: SEQ ID NO 68 (peptide)
peptide: [NMeI]VLSLD[dV]PIKLK([γGlu-C16 diacid])KILLEQEKQKKQREQAETNAQILAQV-NH2
modifications: N-terminus assumed
SMILES: CC[C@H](C)[C@H](NC)C(=O)N[C@H](C(=O)N[C@@H](CC(C)C)C(=O)N[C@@H](CO)C(=O)N[C@@H](CC(C)C)C(=O)N[C@@H](CC(=O)O)C(=O)N[C@@H](C(=O)N1CCC[C@H]1C(=O)N[C@H](C(=O)N[C@@H](CCCCN)C(=O)N[C@@H](CC(C)C)C(=O)N[C@@H](CCCCNC(=O)CC[C@H](NC(=O)CCCCCCCCCCCCCCC(=O)O)C(=O)O)C(=O)N[C@@H](CCCCN)C(=O)N[C@H](C(=O)N[C@@H](CC(C)C)C(=O)N[C@@H](CC(C)C)C(=O)N[C@@H](CCC(=O)O)C(=O)N[C@@H](CCC(N)=O)C(=O)N[C@@H](CCC(=O)O)C(=O)N[C@@H](CCCCN)C(=O)N[C@@H](CCC(N)=O)C(=O)N[C@@H](CCCCN)C(=O)N[C@@H](CCCCN)C(=O)N[C@@H](CCC(N)=O)C(=O)N[C@@H](CCCNC(=N)N)C(=O)N[C@@H](CCC(=O)O)C(=O)N[C@@H](CCC(N)=O)C(=O)N[C@@H](C)C(=O)N[C@@H](CCC(=O)O)C(=O)N[C@H](C(=O)N[C@@H](CC(N)=O)C(=O)N[C@@H](C)C(=O)N[C@@H](CCC(N)=O)C(=O)N[C@H](C(=O)N[C@@H](CC(C)C)C(=O)N[C@@H](C)C(=O)N[C@@H](CCC(N)=O)C(=O)N[C@H](C(N)=O)C(C)C)[C@@H](C)CC)[C@@H](C)O)[C@@H](C)CC)[C@@H](C)CC)C(C)C)C(C)C

What follows are binders tested against T1, CRF1R receptor (assay: cell-based or functional assay).

Compared with B1, B2 is lower in “Emax (% I)” value: 3% for the first, 0% for the second.

Compared with B3, B4 is higher in “Emax (% I)” value: -2% for the first, 4% for the second.

With B5 the “Emax (% I)” value was 8%.

The binders below were run against human corticotropin-releasing factor 2a (CRF2a receptor) (human), Q13324 (assay: cell-based or functional assay).
Sequence of human corticotropin-releasing factor 2a (CRF2a receptor) (human), Q13324 (Q13324 20-411): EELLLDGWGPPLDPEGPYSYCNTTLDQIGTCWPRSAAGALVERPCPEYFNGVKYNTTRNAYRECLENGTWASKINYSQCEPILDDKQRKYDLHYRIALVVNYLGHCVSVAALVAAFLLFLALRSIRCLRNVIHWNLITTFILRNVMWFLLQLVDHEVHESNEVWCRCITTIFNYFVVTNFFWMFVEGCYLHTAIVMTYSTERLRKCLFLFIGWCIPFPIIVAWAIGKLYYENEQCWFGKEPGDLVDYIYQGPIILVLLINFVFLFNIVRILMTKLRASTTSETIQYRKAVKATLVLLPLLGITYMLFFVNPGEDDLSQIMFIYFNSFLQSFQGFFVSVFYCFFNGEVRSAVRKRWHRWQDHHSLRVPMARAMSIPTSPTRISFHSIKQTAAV

Going from B1 to B2, the EC50 [nM] (cAMP) rises from 0.28 nM to 1.74 nM (6.2-fold).

First: B3
Second: B4
The EC50 [nM] (cAMP) of the first is 1.8-fold lower: 0.55 nM for the first, 1 nM for the second.

With B5 the EC50 [nM] (cAMP) was 0.05 nM.
